Data from publication doi:10.1101/467571.

How the values were obtained:
[1] = target: T1, rDorsal-RHD (Litopenaeus vannamei, UniProt D2E9Y3 74-253); assay: EMSA
T1 sequence: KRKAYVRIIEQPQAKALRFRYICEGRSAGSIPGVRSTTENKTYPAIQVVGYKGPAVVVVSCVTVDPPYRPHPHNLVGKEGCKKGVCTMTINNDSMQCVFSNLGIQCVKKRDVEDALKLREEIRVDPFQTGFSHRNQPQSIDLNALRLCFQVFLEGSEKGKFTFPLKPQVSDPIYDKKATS

[2] = target: rTrx (UniProt P0AA25 1-109); assay: EMSA
[3] = target: T1, rDorsal-RHD; assay: competition

Chain of rTrx (P0AA25 whole entry): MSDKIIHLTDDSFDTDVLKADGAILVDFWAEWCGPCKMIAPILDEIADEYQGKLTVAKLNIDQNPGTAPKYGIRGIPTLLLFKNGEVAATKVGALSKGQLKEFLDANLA

B1: probe 1 (BigPEN kB1) (dsDNA)
DNA 1: TCTGTGTGTGTGTCCTTTAGTGTTTTTCGCCGGAGAAAACATTATCAGAC
DNA 2: GTCTGATAATGTTTTCTCCGGCGAAAAACACTAAAGGACACACACACAGA
B1: binds [1]; no binding [2].

B2: unlabeled probe 1 (dsDNA)
DNA 1: B1 DNA 1
DNA 2: B1 DNA 2
B2: binds [3].

B3: Mut-bio-probe 1 (dsDNA)
DNA 1: TCTGTGTGTGTGTCCTTTACGGAGAAAACATTATCAGA
DNA 2: TCTGATAATGTTTTCTCCGTAAAGGACACACACACAGA
B3: no binding [1].
